This note sets out measurements from article doi:10.1101/2025.05.06.652354.

The target of assay [1] is Clostridioides difficile transferase B component, CDTb(45-876), activated with trypsin (Clostridioides difficile) (UniProt O32739). The assay is described as follows: SDS-PAGE of SDS-resistant oligomers.
Assay [2] shares this target. The experiment in a line: SEC.

The stoichiometry N is the number of molecules, sites or subunits per partner or assembly. “Clostridioides difficile transferase B component, CDTb(45-876), activated with trypsin (from UniProt O32739 45-876) (natural protein)”: in assay [1], the fold oligomer formed with 2.5 M ethanol against water amounted to 7.5 fold. In assay [2], this substance yielded a stoichiometry N of 7.
